Experimental data published in the DeepSol protein solubility set.

Assay: soluble on expression in E. coli; label from the status in PepcDB or PDB records
In the case of “MIELSHEEELRYNRQIILKSVDFDGQEKLKASKMLIVGLGGLGCAASQYLAAAGVGNLTLLDFDTVSLSNLQRQVLHCDARLNMPKVESAKIALEQINPHINIETINAKLDEEKLAEIIPHFDIVLDCTDNVEIRNQLDRQCNHMKVPLISGAAIRMEGQVSVFTYEPNTPTYRDLSKLFRQNVLSCVEAGVLAPIVGIVGCIQALEAIKVRLKIGKNLCGRLLMIDGFSMNIREIKLPTNME”, the “soluble on expression in E. coli” value is reported as “not soluble”.
With “MIEQIGADSKSAENKQERKLYIETYGCQMNVADSEVVASVMQMDGYNLTDNVDEADTILVNTCSVRDNAEQKVLNRLAYYHSLRKKRRASSRLVIGVLGCMAERVKEELIREHHVDVVAGPDSYLDLPNLVGAAEQGEKAINVELSTQETYKDVMPLKMGGVHINGFVSIMRGCNNFCSYCIVPYTRGRERSREIESILNEVRDLKAKNFREVTLLGQNVNSYRYEQNGRIIRFPDLLAAVAEAVPDMRIRFTSPHPKDMDDEAIAVMARYRNICNHIHLPAQSGSDKMLRVMKRGYTRRWYLDRVAAIRRAIPDCAISSDLFCGFHSETEEDFEATLSLMEEVRYDSAFMFKYSERPGTYAARHLADDVPEEVKLSRLDRMIALQNRLSEESNKRDIGKTFEVLIEGFSKRSREQLFGRTQQNKVVIFDKNGHRVGQYIYVRIKDASSATLFGEVVETPTSE” the “soluble on expression in E. coli” value was “not soluble”.
In the case of “MIETSLDFSGLNDIAKDLEALSRAENNKVLRDATRAGAEVLKEEVIDRAPVRTGKLKKNVVVVTQKSRRRGEISSGVHIRGVNPRTGNSDNTMKANNPRNAFYWRFVELGTANMPAHPFVRPAYDTREEEAASVAIARMNQAIDEVLSK”, the “soluble on expression in E. coli” value is reported as “not soluble”.
For “MIEVDGYFYHNAGAENKNTFVNDRWKMNDAAVRGYLVLRYPASSVFEELDTIVGQVIFATRVVREELVVVDSTRRWHRGPWEWLPLDSW”, the “soluble on expression in E. coli” value was “not soluble”.
With “MIEYAALKFNVVSDPMSETAKKVIVGMSGGVDSSVSAWLLQQQGYQVEGLFMKNWEEDDGEEYCTAAADLADAQAVCDKLGIELHTVNFAAEYWDNVFELFLAEYKAGRTPNPDILCNKEIKFKAFLEFAAEDLGADYIATGHYVRRADVDGKSRLLRGLDSNKDQSYFLYTLSHEQIAQSLFPVGELEKPQVRKIAEDLGLVTAKKKDSTGICFIGERKFREFLGRYLPAQPGKIITVDGDEIGEHQGLMYHTLGQRKGLGIGGTKEGTEEPWYVVDKDVENNILVVAQGHEHPRLMSVGLIAQQLHWVDREPFTGTMRCTVKTRYRQTDIPCTVKALDDDRIKVIFDEPVAAVTPGQSAVFYNGEVCLGGGIIEQRLPLPV” the “soluble on expression in E. coli” value was “not soluble”.
With “MIFDHGKKLMKRVERYSGCSSGSLVAAMFIFNPEKLVFLVSFRKTKGRLPLFSLFLLNFRNLCILSISEAVEEIYKMADEVNDKTLGAMSPGFVISDRLRKVVEKFLPDDVAKANDLLFVSVTKLKTWKNELISNFESKIDLIDCLMASCYHPMYSSGLNGKAPILRGEAYIDGGYSNMIPEFLDMRTVTVSAFAGDADICPVEKSALFNDFMFAFFNQNMKLTLSNMKRVTNALFPPTRAILQEYFNAGARDAEKLLKDSGFYE” the “soluble on expression in E. coli” value was “not soluble”.
In the case of “MIFINREREMKILEKEWENRPSFVVLYGRRRVGKTRLLREFSKAKKTFFFVFPEAIKEIQMREFKDAMADFLGDEFIRKLKTDNWFDLLKYLAEEVDDCLIVLDEFTYAVKSDRKILSDLQRVWDIILSEKKVMLVLSAPLLGMMWDEVLSHASPLYGRRTRSMHLKPLNYPDALNFFSDWEFGIRAYMLVGGIPSYLKLASRYNTIEDFLREEFLSDYGFFYDEPYVLLSEELRELRTYFSILIAIAEGNRRLERIANFVGLPARSIYPYVETLMRLGFIEKESPILGSRKVSLYRIKDPMLLTWLTLTYPQMAEISSGTAKLDKLYRVYSIRFEELAKEFLTLFRPIEFKTLGRWWYRGEEIDIVAIDEDIANLIEVKWMDLRKKEALRVLQELEEKAKKVNFSGKINLGIVARNVEKKEELRKEGYLVWDLEDILEAAGNSEREKLLEHHHHHH”, the “soluble on expression in E. coli” value is reported as “not soluble”.
With “MIFYLLPSEKKQSTMDLVKEDYFSIWENREKNRFPELNPYRKELIEYFKVETKPLAPAWRRYNGKFWDSLEFWCLPPEVQQNIIDRGIIISPLFGMLGVNDPIPRYSVTFQDKYKGKKLTEFWKEVLKDISKKMFESSVIFDFLTTEQRETLTFPEDVTFVRFDYIRKGKKVVNPMPHRAYTLRYIVEKNVDLNSLEKINFYDYKVSKIEKEGNVIRVIMESEGRYI” the “soluble on expression in E. coli” value was “not soluble”.
With “MIGFLSDRQGFEKQYHDIDLSSFGIREGISEIIASTGFEHPNAAPIGIVMKGERPFVRLFKGSHTWENVLKEKCLASNVVYDPILFVRSTFSDLVPSEFEYVDAGEFKFPVLKEAIAWVVFECINLRNTDQSLVADLVPLNAGFNERNIKELPVPNRGFNAVLEATVHATRYQLTGEEKYLELIRHYESLASKCGGDAEKKAMKLIYEALGLLEHHHHHH” the “soluble on expression in E. coli” value was “not soluble”.
For “MIGGRDDYPESGFSLPFEPGPRRMQIKRGIRILGIDDSPFSRGDRESNLVGVLMRMDGYVEMMEKEKIQVDGDDVNRAIENLFLYTGRVARIIMMSGISFAGFNICDIDALYQRIRVPVISVFEQGGSVERMIAAIEKHLDDPEKVRILRSLKPVEIRNNGYIIMANLSGIDAQSAQEIITRNTIRGKFPEAIRLADLVGKILGR”, the “soluble on expression in E. coli” value was “not soluble”.
For “MIGILIPVHNEEQLLDLCLETIKQAAAHPALKGEQVEVLVVLDSCTDRSAEIARAHGVMILEVTARNVGQARAEGAAFLLDRGARWLACTDGDSSVASDWLAEQLALDADAVCGTVTLGDWNNDISAPARAAYLKHYQQRDGHRHIHGANLGVSSIAYISAGGFPSLTCHEDVHLVRQLELIGARIAWSCRPRVTTSTRLNSKARGGFGDYLSSLNALEHHHHHH”, the “soluble on expression in E. coli” value was “not soluble”.
In the case of “MIGMVNVQCDTPLDYYATAPNLLSRDTSVRKRGDSESANASRHNSTKRTPSWRPLFTGQGKKKSSKPKYLQDGRKMTEDGHDEPNKLWEELFLRSFAHKIEQEISSPSPLEAHKNLNSELSKLNIQDKSFYRSTYSLVSPTRIENTDFEELERIENQEKTQDDSKPNRSNSSTERPSSQICSVFLPFIKTIKGNKKKNSITSVNNNTKNS”, the “soluble on expression in E. coli” value is reported as “not soluble”.
In the case of “MIHLEHINLVVDDIPKALIFYQAAFPHWRIRGGGESTWYSKPRNWTHFGDDYQYIAFSDNGEGENRDLTGHQIGLAHFAFVVSDLDAIITRLTQAGFPIAKEGMEDPYRRNIYFFDAHGFEVEFVEYLSDIPAERNRYLEHHHHHH”, the “soluble on expression in E. coli” value is reported as “soluble”.
In the case of “MIHTEPSAQPSTMDTAAFLKHIESAFRRIFSDGIDLMRYLPEDKWLALKQAGLLLPFLDKKYGGRKGSQFEIQEVLRIAGHYGVPVTLRTGIEGALVLQPLQEFGDEAQVAQGLEMIFKGEGGGLGVTEPETSGAAIAREMQSYYEYIDGQTIYVNAAKYWQGNSQSDFLLVAAKERKNGKLAKVIDLLLVPKTYIRCETLASEGLRAVRYAVNRIDAEMPATAVMKLSQSDAAGLRAFQNIFIRSRLQLIGMTHGIMEYILENLERYVRNDIKFVDYERREIRRRHQVSEILYRYVCHSVSPVAPVAHQLMEANIVKTLATEYTYAAAQMLQKLLGAKGFERGHTAGNIAIDIRPFTIFEGPNDMLYAEIYDQFVRATAEEKEAGMKLDKNQTLLDRLQTDARFAAVARDYTLPEDIRSFLQEHTLTDACALQKVFIGKIIARLFVFVQAKHEDTAAFLLNDIRKDILDCRYCG”, the “soluble on expression in E. coli” value is reported as “not soluble”.
For “MIHYKIAPSPLDHEWHILLKFTQDNDFPIEISLPNWVPGSYLIRDFSRHITSIHASCNGTSMPLEQIAKNRWHTAAVRGEWQIRYTVYAFDLSVRGSFLTTERGFFDGSCLFLKVEGTETLPHRLELTGIPPEWRIATTLPETGRLVFQTASYDELIDRPVEMGLIEFLDFEAAGIPHTIALNGIYPDFDRDRLVSDIKKICETELAMFSSPAPFEKYLFLLHVGDHIYGGLEHTDSTALLADRHSLPPYGMTDADDAYTTLLGLFSHEYFHAWNVKSIKPAAFAPYDLDKENYTEQLWAFEGITSYYDDLFLARSRTISPEFYLNLLAQGITRVQQTRGRLRQTLAESSFTAWNKFYKPDENSPNAIVSYYQKGALAALCLDLIIRNRSNGRHSLDTVMDKLYREWRDTHSGIPEKHWQIRCQEITGLDLTDFFQTALYSTEDLPLAECLATTGVKLTFLPLPRQHGGGYAEHIFPIPPTGDFGARFKQNADHIVLTHVFNGGSAESAALCPQDKIIALDGYACTDFAAQWARYHVRAKINIHFFRAGILRQTVLTVQATAADTAILHITDRNLLENWLFGLEHHHHHH”, the “soluble on expression in E. coli” value was “not soluble”.
For “MIIAGVDIGNSTTEVALAKVNGDEIRFLASGISNTTGIKGTPQNVEGVRHALEDAVRKANLTIKDIDLLRINEATPVISDIAMEAITETIITESTMIGHNPTTPGGVGLGIGITIPIFELEKCKHGEEVIVVIPKNVDYEDAAKIINNAFSKGVEVKGAIAQKDDGVLIATRLQRRIPIVDEVKQIEKVPIGMLACVEVAEPGYTIKTLSNPYGIASVFNLTAEETKNIVPVARALIGNRSAVVIRTPKGEVQERKIPAGTLIIKGNNRTFTVDIEEGAEAIMSAVESTWPLVDAEGTPGTNVGGLIARIKETMADVTGQDSSNIQIQDVLAVDTLVRQKVKGGIAEEFSSENAVALAAMVKSSKLPMEKVAQKIEQEIGIAVEIAGIEANMAIIGALTTPGTELPLAILDLGGGSTDAALMTKNGEVKSVHMAGAGEMVNMLIKTELGIEDKYLVEDIKKYPVCRVESLFSIRLEDGTVRFFKEPLDPRTFARVCLLREDGLLPLPPELNMEKVINVRRNAKRKVFVTNALRALSKVAPAGNIRLIDFVVMVGGSALDFEIPEMISDTLAGYGIVAGRGNIRNVEGPRNAVATGLVLSRCKRK”, the “soluble on expression in E. coli” value was “not soluble”.
For “MIIKRTPQAASPLASWLSYLENLHSKTIDLGLERVSLVAARLGVLKPAPFVFTVAGTNGKGTTCRTLESILMAAGYKVGVYSSPHLVRYTERVRVQGQELPESAHTASFAEIESARGDISLTYFEYGTLSALWLFKQAQLDVVILEVGLGGRLDATNIVDADVAVVTSIALDHTDWLGPDRESIGREKAGIFRSEKPAIVGEPEMPSTIADVAQEKGALLQRRGVEWNYSVTDHDWAFSDAHGTLENLPLPLVPQPNAATALAALRASGLEVSENAIRDGIASAILPGRFQIVSESPRVIFDVAHNPHAAEYLTGRMKALPKNGRVLAVIGMLHDKDIAGTLAWLKSVVDDWYCAPLEGPRGATAEQLLEHLGNGKSFDSVAQAWDAAMADAKAEDTVLVCGSFHTVAHVMEVIDARRSGGK”, the “soluble on expression in E. coli” value was “soluble”.
For “MIIPEYGRTLTPEEWRPVVDEMLEATHIIFTTHENSDGDGLGSQVALALALKALGKEVAIFNPTEVPPNYLFLKELHEINLFRDRDEESMQEFFLADLLVVLDANLHDRIGRLWPHVEFARQMSRLKVLCIDHHLEPEDFADITVCETYASSTGELVCDLVTALELRTGQQLFTPEVASALYAAIMTDTGSFRFPKTTPYTYRLAGMLVEKGADPELVYDRIYNALTPEALKLLGLSLSNIKIIENGLISWLFITQEMLEQTGSKLFDTDLIIRYLLSVPTVKVAVLLVEMQDGRCKVSFRSRGKIYVNQLAKHYGGGGHMNAAGCLLRMSAEKAQLVILEDVRKFTLEQVDS”, the “soluble on expression in E. coli” value was “soluble”.
In the case of “MIIRIVQNIQRINKEGNAPLYISFYLGKEKVVIPCKLSVPTTKFDSKTGMLRGTNKEAKDINLIIERLKAKVNDILVKHRLKNLTLNKEAFMREYNNPSDFKSFHDFVASYMKTYSRRLEIGTFRHHKSCMRKFKEYCEGLQFHELTEDFLRDYLIYMKKTLCNADSTAQRNLSTIKIYVSAAIKKGYMENDPFKDFGVKRIKSNIDYLTEEELIKFISLYYDRRLPERLERTLGFFLFMCFTSLHISDARHVCLEQINNGILTYYRIKNRNCKPEAIKIPLSIPAFKIIEELQGKRKEGH”, the “soluble on expression in E. coli” value is reported as “not soluble”.
